Assay: soluble on expression in E. coli; label from the status in PepcDB or PDB records

MSLSEKMRRIVEAAGGIVWRWKAGSDIANDPAIASSKSAQEQLDSIEVCIVHRPKYDDWSWPKGKLEQNETHRHAAVREIGEETGSPVKLGPYLCEVEYPLSEEGKKTRHSHDCTADTKHTLYWMAQPISADDAEHLLDAFGPVHRADVGEINDIVWVSVREARKILSHSTDKDTLAVFVDRVQEGAATAQNLLIVRHAKAESRKSWKGTDANRPITPKGAAMAFALNRELACFNPTRLATSPWLRCQETLQVLSWQTERPMEHINTLTEDAFAEHPAVSWLAFREQITQTLNSRETTAICMHRPVIGGMYDHLRGLCARKQLAKQLIAKSPYMPTGTAMSLFIIDTPQGPSIIDIQKVSPIVYEGHHHHHH
soluble on expression in E. coli: soluble

MTRQRFISDDHYKFQSEHFIRLHGCDISLFPLEIKGKESISDVYSYEIKCFSRTDHNSLDKLHGTRLSCEIGEQYNSLPARFIHGVVTKVIYNYDNSMQHTCIIILQPEIAELASGKRTRVWSNIKPSDIVSTILEDSLFSPPQVILYKEQNLLEYKIQYQESDLDFINRILSEAGIYYFFVHNRDKHIMTLADDPASHPKASYDKLEHLPCENLKESRHGYIREWSFTESLKCPSVTLSGYNESNVSEITIKSESKLTDVKPSKGVYEDIIPERKRELIKKRSEALIASCDSELKIWSGKTDSWWLSCGECFSLDKQDYRITSLYLNAVNNDNEHAGLCYCDLCASDNKSSLNFSREFKTPIIPGVLLARVVGPDSEEYYTDDNGRVKISFLWGEKSAAGTDKTSCWVRVSQVWSGEGFGSQFIPRIGSEVLVSFIQGNPDYPVIVGTVYNGQNTSPFSLPENNCKSGFITRSVKNGKKGEGHQLVFDDKEGEEKVIVTSSGDSLLTVKKDMISTINRSMSLTIAEGRNAEIKRGNDRLVLKEGDLHNDVHGNINIKVSNGDYNLKVSGGSGSLITDKNLTLESTQSIKIKVGANEITISTSGIDIKAAKITIEGQVSAEVKAATLKFESQAISEVKGTMLTLQGSAMTQIKGGIVNIG
soluble on expression in E. coli: not soluble

YPQVIVDHPFLYLIRNRKSGIILFMGRVMNPHH
soluble on expression in E. coli: soluble

MGSDKIHHHHHHMTNQTQSMALMVPQSSSSLEAYIHSAHNIPMLEANEEYELAKRLQETGDIQAAKQLIMSHLRFVIHVAKGYAGYGLPQADLIQEGNIGLMKAVKRFDPDVGVRLVSFAVHWIKAEIHEYVLKNWRIVKVATTKAQRKLFFNLRKAKKRLGWFSDEEVTMVAENLGVSKSDVTEMESRMAAQDPAFDLASDNDDDQDYAPVHYLEDHSSDIASQVENDNFEADNQTRLLAAIKTLDERSQHILQARWLDEEKTTLQELAATYQVSAERIRQLEKNAMNKLKGRMEM
soluble on expression in E. coli: not soluble

MEQETLEQVHLTEDGGVVKTILRKGEGGEENAPKKGNEVTVHYVGKLESSGKVFDSSRERNVPFKFHLGQGEVIKGWDICVASMTKNEKCSVRLDSKYGYGEEGCGESIPGNSVLIFEIELISFRE
soluble on expression in E. coli: soluble

MNEKKLVEALKRKEDWAYEVLYREFAPKIGSIAKSFLNTDDVDDVVQDVFLRIFKGIKKFRGDSKLSTWIYRIAVNVCKDYLQKYKKRNEFLTDFQEKDNEEEIYIQPEAKENVLDEVLRSITAERVQKALEKLSPEDRLLIKLRDIDGLSYEEIASVLQKPVGTVKSRLHYARKRLGNLLKEGETVER
soluble on expression in E. coli: not soluble

MLNPDELVAIDIHTHAEEPCGCHADDGYDDFQARMAEYFGSPNKHPPTVPETAAYYRAKKIAAVIFPVDAERETGFRRYNNDEMIEITRQNSDVLIPFASIDPHKGKIGVREARRLIADYGIKGFKFHPTMQGFYANDRLAYPLYEAIQEGGAIALFHTGQTGVGSGMPGGMGMRLKYSNPMYMDDVAADFPDMKIVLAHPSFPWQEEALSVATHKPNVYIDLSGWSPKYFPPILVRYINSILQDKMLFGSDWPVITPDRWLSDFAKLEIREEVRAKVLKQNARKLLGIAAALEHHHHHH
soluble on expression in E. coli: not soluble

MDAAIKKIPYGMTDFERIILENYYYVDKTQYIAKVEKVTSFFFFVRPRRFGKSLFLNMLGLYYDINQKDKFEKIFGNLYIGKHPTPDRNKYLVLTLNFSSVAANMDRLEETFNTYCKIVMDGFAERNAHLLGKEAVEKLHELKTGDALLGSLCQSAQNKGQKIYLILDEYDNFANNILVDYGNKRYRSITHGSGFFRSFLKVVKDYSSSVIERIFLTGVSPVTMDDLTSGFNIADNYSSSPIFNNMMGFNEQEVRTLIDYYKSYRELPHTTDELITIMKPWYDNYCFAMKALKEPSMYNSDMVLYFMNHYMLNEDIPDNMLDANIRTDYNKLRHLIHVDKTFGENASVVQEIVEKGSTTGIIANSFPAEDIIKPENFKSLLYYYGMLTISGMEMGEPILSVPNWAVREQLYGYMADIYKDSADLYLETDKLVDRMKRMAYKGEWENCFTYIADRLNAQSSVRDFIEGEAYVKTFILAYLGLTHYYIARPEYESNKGYADIFLQPRLLQLPDMVYSYCIEVKYAKRDASDTEIEKLLSNAKIQLKQYAASEWIHQDKGTTELKSIALVFQGWKLVRVEEV
soluble on expression in E. coli: not soluble

MDDASPTLASVIIPAFNAEAVLEQAVDSVRASIAHCAAHLAAAPAGAFEIILVDDASTDATLALARRLAAEDPRITVIARRRNGGAGPARNAGARAAKGEILFYLDADDGFLPPHVLACLQELLRHPEAGLVKTGIAVDFPLTEEWRQALIVSVVFNTALWKRCHEAIGGFMEDPELCVLRCEDVFYCDLLMRAFPARGIEAQTVRHTLRPGGAFDGQRAKFSAPPGEGPESLTPAQSAVLPLIRARHAERLARLGLEDAEALEHHHHHH
soluble on expression in E. coli: not soluble

MEKKVGTDRVKRGMAQMQKGGVIMDVVNAEQAKIAEEAGAVAVMALERVPSDIRAAGGVARMADPRIVEEVMNAVSIPVMAKARIGHITEARVLEAMGVDYIDESEVLTPADDEFHLLKSDFTVPFVCGCRDIGEALRRIGEGAAMLRTKGEPGTGNIVEAVRHMRQVNGQIRQIASMTDDELMVAAKNFGAPYELVKEIKTLGKLPVVNFAAGGVATPADAALMMELGADGVFVGSGIFKSDNPAKFASAIVQATTYYTDYE
soluble on expression in E. coli: not soluble

AIASAEAADREAVSGSRPCTPPQTSWFEFLLNPSLLEQHLHSPHPDPSPVQLIFQFLEQASKPSVNEQNQVQPPVDNRRNRTLKLMALKVAAHLRWDLNMLEKGLTIPVLNMLLNELLCVSHVPPGVKHVDLDLSSLPPTTAMAVVFYNRWAIRTIVLSSFPEKQTKPGPHQLNMMNMLQQEKEHTENILSVLREQATDSIMVLEGALSIKKDFYIHL
soluble on expression in E. coli: soluble

MSKSWGKFIEEEEAEMASRRNLMIVDGTNLGFRFKHNNSKKPFASSYVSTIQSLAKSYSARTTIVLGDKGKSVFRLEHLPEYAGNRDEKYAQRTEEEKALDEQFFEYLKDAFELCKTTFPTFTIRGVEADDMAAYIVKLIGHLYDHVWLISTDGDWDTLLTDKVSRFSFTTRREYHLRDMYEHHNVDDVEQFISLKAIMGDLGDNIRGVEGIGAKRGYNIIREFGNVLDIIDQLPLPGKQKYIQNLNASEELLFRNLILVDLPTYCVDAIAAVGQDVLDKFTKDILEIAEQ
soluble on expression in E. coli: soluble

MGSDKIHHHHHHMYKKSVDLSLESVLVEIDENKKLMPSRNATVQPVALMRLGLFLPSLKRKGKDTENISIDASSELQSLELARAEGYTDIRITGPRLSMETDFKVWVGIILAFSKYGLNSSTIELPFSEFATFCGFSSKDKDKGLRTRLADSLIRLRSTTIKLASEKDRNGVVSGLLSRGKWDEKDDIMELTADESLWELYQFDRQVLLQMFIIRQLANKGTAQALYTFIESLPERPIPLSFARIKRRLMLTSPNNQQNRVINKAIDELKAVGYLDGDVVKKDGEWHLIITRRTPRPDIKAMSEALKDGE
soluble on expression in E. coli: not soluble

MSLENTDINISALLNVDIDKILKQTIKEKIEKLMEIELNAYLEENPGIKNGKYKRDLKTKYGEIKQLNVPRDRDSNFHTQVIEPYNRSIGMEDLIVSMYSNGISTRRIAGIMEDILGNKYSKSTISRITDLTIEEVYKFINRPLDKRYIAVFLDGLFFYLRRGNVDKEPVIFALGIKETGEYEVLGFYLTVKESHNAYKEVLEDLYNRGLKEPLLIVADGIKNLDEEVMEIYPRSEFQLCTIHYARGLKSNVREKDIDEITIDANKMFKCDNKEEAIIRFNDFKYKWKSKYPKVIYNTEKNLGKLLRFYNYPVNIRKSLKSTNAIERFNGEVRRRVKTISSFPDEDSAMKVFYYKSIEYNSKHAFRKMNGYYKCKDEIKEMFQKREGHHHHHH
soluble on expression in E. coli: not soluble

MGSDKIHHHHHHMKVVTFGEIMLRLSPPDHKRIFQTDSFDVTYGGAEANVAAFLAQMGLDAYFVTKLPNNPLGDAAAGHLRKFGVKTDYIARGGNRIGIYFLEIGASQRPSKVVYDRAHSAISEAKREDFDWEKILDGARWFHFSGITPPLGKELPLILEDALKVANEKGVTVSCDLNYRARLWTKEEAQKVMIPFMEYVDVLIANEEDIEKVLGISVEGLDLKTGKLNREAYAKIAEEVTRKYNFKTVGITLRESISATVNYWSVMVFENGQPHFSNRYEIHIVDRVGAGDSFAGALIYGSLMGFDSQKKAEFAAAASCLKHTIPGDFVVLSIEEIEKLASGATSGRVER
soluble on expression in E. coli: soluble

MNNGYSPTSSNQQNVSVEHDIIMRGRRIIDITGVKQVESFDSEEFLLETVMGFLTIRGQNLQMKNLDVEKGIVSIKGKVNEMLYIDENQGEKTKGFFSKLFKLEHHHHHH
soluble on expression in E. coli: not soluble

MGHHHHHHSHMSETSFNLISEKCDILSILRDHPENRIYRRKIEELSKRFTAIRKTKGDGNCFYRALGYSYLESLLGKSREIFKFKERVLQTPNDLLAAGFEEHKFRNFFNAFYSVVELVEKDGSVSSLLKVFNDQSASDHIVQFLRLLTSAFIRNRADFFRHFIDEEMDIKDFCTHEVEPMATECDHIQITALSQALSIALQVEYVDEMDTALNHHVFPEAATPSVYLLYKTSHYNILYAADKH
soluble on expression in E. coli: soluble

SASVEGDDDFGSSSSRSYQDQLYTELWKVCAGPLVEVPRAQERVFYFPQGHMEQLVASTNQGINSEEIPVFDLPPKILCRVLDVTLKAEHETDEVYAQITLQPEEDQSEPTSLDPPIVGPTKQEFHSFVKILTASDTSTHGGFSVLRKHATECLPSLDMTQATPTQELVTRDLHGFEWRFKHIFRGQPRRHLLTTGWSTFVSSKRLVAGDAFVFLRGENGDLRVGVRRLARHQSTMPTSVISSQSMHLGVLATASHAVRTTTIFVVFYKPRISQFIVGVNKYMEAIKHGFSLGTRFRMRFEGEESPERIFTGTIVGSGDLSSQWPASKWRSLQVQWDEPTTVQRPDKVSPWEIEPFLATSPISTPAQQPQSKCKRSRPIEPSVKTPAPPSFLYSLPQSQDSINASLKLFQDPSLERISGGYSSNNSFKPETPPPPTNCSYRLFGFDLTSNSPAPIPQDKQPMDTCGAAKCQEPITPTSMSEQKKQQTSRSRTKVQMQGIAVGRAVDLTLLKSYDELIDELEEMFEIQGQLLARDKWIVVFTDDEGDMMLAGDDPWNEFCKMAKKIFIYSSDEVKKMTTKLKISSSLENEEYGNESFENRSRG
soluble on expression in E. coli: not soluble

MRTQWPSPAKLNLFLYITGQRADGYHTLQTLFQFLDYGDTISIELRDDGDIRLLTPVEGVEHEDNLIVRAARLLMKTAADSGRLPTGSGANISIDKRLPMGGGLGGGSSNAATVLVALNHLWQCGLSMDELAEMGLTLGADVPVFVRGHAAFAEGVGEILTPVDPPEKWYLVAHPGVSIPTPVIFKDPELPRNTPKRSIETLLKCEFSNDCEVIARKRFREVDAVLSWLLEYAPSRLTGTGACVFAEFDTESEARQVLEQAPEWLNGFVAKGANLSPLHRAMLLEHHHHHH
soluble on expression in E. coli: not soluble

MSLTNSDWMPTASISQLKQRATLLRQIREFFAERNVLEVETPAMSHATVTDIHLHTFKTEFVGPGYAKGSALHLMTSPEFHMKRLLAAGSGCIYQLGKAFRNEENGRYHNPEFTMLEWYRIGFDHHALMDEMDALLQLVLRCGSAERMTYQEAFLNVLGVCPLEEEMRELKQVAATLGLSDIAEPEEDRDTLLQLLFSIGIEPKIGQITPAFVYDFPASQAALAKINPADPRVADRFEVYFKGIELANGFHELDNPAEQLARFKADNAKRLEMGLTEQPIDYHLIAALEAGLPECAGVALGIDRLIMLALGEDHIDKVTAFPFPRAEGHHHHHH
soluble on expression in E. coli: soluble

Reference: the DeepSol protein solubility set
